Experimental data: patent US20140045754A1, “GLP-1 COMPOSITIONS” (priority 2011, published 2014)

How the values were obtained:
[1] = achievable concentration of protamine sulphate stock solution with NaCl; assay type: physicochemical; conditions: 21° C.
Description: In one embodiment, the stock solution of the polycationic compound is prepared with NaCl. […] This allows the storage and/or use of higher concentrations and lowers the volumes of polycationic compound stock solution needed. This makes much larger volume available for either the GLP-1 compound stock solution or the solution of metal salt. Thereby, it is easier to control the mixing process, involving the aqueous solution of GLP-1 compound and the stock solution of metal salt. As a result of this, the injectability of the final formulation is improved, especially after storage at elevated temperatures. For example, a 30-60 mg/mL protamine sulphate stock solution is achievable at 21° C. when adding sodium chloride corresponding to a concentration of 0,3M, and a 30-80 mg/mL protamine sulphate stock solution is achievable at 21° C. when adding sodium chloride corresponding to a concentration of 0,5M.

[2] = optimisation of liraglutide:protamine molar ratios: free liraglutide and protamine in supernatant by liquid chromatography; conditions: pH 7,8; 0,11 molecule of protamine per molecule of liraglutide
Description: In each of 8 containers, 10% of the resulting suspension was transferred. Under vigorous stirring, a specific portion of a 18 mM Protamine Chloride solution was added.
The initial container received 0,10 mL of the 18 mM Protamine Chloride solution, followed by 0,2 mL to the second container; ending with addition of 0,8 mL to the final container (number 8). Water was added to each of the eight containers to achieve a total of 5,0 grams of suspension. After 1 hour storage, about 1 mL were withdrawn from each container and centrifuged for 10 minutes at high speed.

composition stability and incorporation of protamine [2] | Compound | achievable stock solution concentration ([1]; sodium chloride 0,3M) [mg/mL] | achievable stock solution concentration ([1]; sodium chloride 0,5M) [mg/mL]
 | protamine sulphate | 30 to 60 | 30 to 80
good composition stability | CCCCCCCCCCCCCCCC(=O)N[C@@H](CCC(=O)NCCCC[C@H](NC(=O)[C@H](C)NC(=O)[C@H](C)NC(=O)[C@H](CCC(N)=O)NC(=O)CNC(=O)[C@H](CCC(=O)O)NC(=O)[C@H](CC(C)C)NC(=O)[C@H](Cc1ccc(O)cc1)NC(=O)[C@H](CO)NC(=O)[C@H](CO)NC(=O)[C@@H](NC(=O)[C@H](CC(=O)O)NC(=O)[C@H](CO)NC(=O)[C@@H](NC(=O)[C@H](Cc1ccccc1)NC(=O)[C@@H](NC(=O)CNC(=O)[C@H](CCC(=O)O)NC(=O)[C@H](C)NC(=O)[C@@H](N)Cc1cnc[nH]1)[C@@H](C)O)[C@@H](C)O)C(C)C)C(=O)N[C@@H](CCC(=O)O)C(=O)N[C@@H](Cc1ccccc1)C(=O)N[C@H](C(=O)N[C@@H](C)C(=O)N[C@@H](Cc1c[nH]c2ccccc12)C(=O)N[C@@H](CC(C)C)C(=O)N[C@H](C(=O)N[C@@H](CCCNC(=N)N)C(=O)NCC(=O)N[C@@H](CCCNC(=N)N)C(=O)NCC(=O)O)C(C)C)[C@@H](C)CC)C(=O)O [liraglutide, N^ε26-[(4S)-4-carboxy-4-(hexadecanoylamino)butanoyl]-[Arg^34]-GLP-1-(7-37)-peptide] |  | 
